Series [1] addresses FurBL (BL05249) (Bacillus licheniformis ATCC14580). The series can be described thus: SEC; Superdex 200 HiLoad 16/60 gel filtration, Chelex-100-treated buffer A (20 mM Tris-HCl, pH 8.0, 0.1 M NaCl, 5% glycerol); oligomeric state judged by elution profile in the last purification step. A general note: Size exclusion chromatography separates by hydrodynamic size, large species first.

Series [2] deals with PerRBL (BL00075) (Bacillus licheniformis ATCC14580). Described as above.
The target in series [3] is ZurBL (BL03703) (Bacillus licheniformis ATCC14580). The series is described as above.
Series [4] deals with PerR2 (BL00690) (Bacillus licheniformis ATCC 14580). The series can be described thus: EMSA. The note with it: EMSA: 20 mM Tris-HCl pH 8.0, 50 mM KCl, 5% glycerol, 50 ug/ml BSA, 100 uM MnCl2; 6% PAGE in 45 mM Tris-borate with 100 uM MnCl2; temperature not stated.
Series [5] deals with the molecule itself. The series can be described thus: SEC; Superdex 200 HiLoad 16/60 gel filtration, Chelex-100-treated buffer A (20 mM Tris-HCl, pH 8.0, 0.1 M NaCl, 5% glycerol); oligomeric state judged by elution profile in the last purification step.

The stoichiometry N is a count of units in the complex or per binding partner. By Kd is commonly meant the free concentration of one partner at which half of the binding sites on the other are occupied at equilibrium, for simple one-to-one binding.

On to FurBL (BL05249) (natural protein), for which the stoichiometry N in series [1] came to 2.
With PerRBL (BL00075) (natural protein), the stoichiometry N in series [2] was 2.
With ZurBL (BL03703) (natural protein), the stoichiometry N in series [3] was determined as 2.
In the case of “mrgA promoter fragment with PerR box (273 bp)”, in series [4], the Kd stood at 70 nM.

B1: PerR2 (BL00690) (natural protein, Bacillus licheniformis ATCC14580, UniProt Q62UQ7 1-154, looked up)
chain: MENETNVKQEAMAQLKRKGIRMTPQRLAIYHYFLANRNHPTIAEIQQSLREIYPAVSTATIYNTIRYFKQEGLIKEMGFTDPLRFDLALEEHDHVICEVCGKIVDFHCPQLEKVKDIAARLTGFKVTHHRLELYGICNDCQAKRKYAAKEKGVR
notes: PerR-like protein BL00690 of Bacillus licheniformis ATCC14580; ORF cloned into the NcoI and BamHI sites of pET-16b (pJL202); Contains structural Zn2+ (~0.8 per monomer); source: E. coli BL21 (DE3) pLysS, purified (heparin-Sepharose, SP-Sepharose, Superdex 200)
As to B1, the “stoichiometry N” value in series [5] is 2.

For the origin of these results see article PMC4866751, “Bacillus licheniformis Contains Two More PerR-Like Proteins in Addition to PerR, Fur, and Zur Orthologues” (PLoS ONE, 2016).
